“Also recorded” adds a separate entry of the source.
Columns and labels:
NTera-2 cells = assay: Neurite growth test using NTera-2 cells (test method 2); type: cell-based, human; conditions: FIG. 7B
Excerpt: Test Method 2: Illustration of the Effect of RGM Peptides in the Neurite Growth Test, Using NTera-2 Cells
The human pluripotent cancer cell line NTera2 (DSMZ ACC527) is established as a cell culture model. Neurites grow from cell aggregates and form a corona of neurites around the particular aggregate.
NTera-2 cells are human embryonic teratocarcinoma cells. A carcinoma is a cancerous tumor, whereas a teratoma or teratocarcinoma is a mixed tumor of the germ cells composed of various differentiated and undifferentiated tissues, and therefore, the same as for the SH-SY5Y culture, comprises a heterogeneous population. The tumor is usually present in an encapsulated form in the various types, such as hair, skin, teeth, muscle, and nerve tissue. The tumors typically originate in the ovaries, testes, abdominal cavity, or brain. The cell line was cloned from the Tera-2 line, obtained from a metastatic teratocarcinoma in a person.
NTera-2 cells are epithelial, adherently growing cells which form a monolayer. Due to the large number of granular particles which they contain, NTera-2 cells may be easily differentiated from the other cells. The cells were cultivated by 1:5 splitting twice a week. The cells of this mixed culture may be differentiated using retinoic acid in neuronal cells.
Culture Medium Fur Growth […]
In order to differentiate the cells it was necessary to introduce antibiotic into the culture medium of the cell line due to the fact that the cells remained in the same culture flask for three weeks. Previously, the undifferentiated culture had been detrypsinated and the cell count determined using a Neubauer counting chamber. […] 25 μL retinoic acid (10 μM) was readded to the medium under dim light conditions. […]
The culture was stored in an incubator at 37° C. with 5% CO2 gassing, and the medium was changed at the beginning and at the end of the week. […] After three weeks the cells were differentiated and were ready for use in experiments. […]
Different plate formats were used for the tests. For the isolation of protein, 6-well plates were necessary for recovering a sufficient quantity. […]

BMP-4 = target: T1, BMP-4 (Homo sapiens, UniProt P12644); assay: In vitro interaction test, variant B: immobilized RGMA-Fc fusion proteins, detection of BMP-4 binding
T1 construct: purchased R&D Systems 314-BM
T1 sequence (P12644 293-408): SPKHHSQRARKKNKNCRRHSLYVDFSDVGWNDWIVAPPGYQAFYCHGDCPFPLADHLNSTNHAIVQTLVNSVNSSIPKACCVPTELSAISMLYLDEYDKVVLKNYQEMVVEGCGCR
Protocol: Test Method 4: In Vitro Interaction Test for Determining the Interaction between RGMA and BMP-2 and -4
The interaction tests were carried out as described below:
Variant B: Immobilization of Various RGMA-Fc Fusion Proteins and Detection of the Binding of the BMP-2/ or -4 Protein
Immunoplate Cert. MaxiSorp F96 (Nunc, 439454)
RGMA-Fc fragments • Volume used: 2.5 μg/mL in Na2CO3; addition: 50 μL per well • 1 hour at 37° C. in damp chamber
3. Washing step: • Wash 3× with PBS/0.02% Tween 20
4. Blocking: • 3% BSA in PBS/0.02% Tween, 1 hour at 37° C. in damp chamber • Addition : 200 μL per well, incubation: 1 hour at 37° C. in damp chamber
Recombinant human BMP-2, Catalog No.: 355-BM, Company: R&D Systems; or
Recombinant human RGM A, R&D Systems; Prod. #2495-RM,
recombinant human BMP-4, Catalog No.: 314-BM, Company: R&D Systems;
Concentration in each case: 10 μg/mL
Dilution steps: in each case 1:2 with PBS/0.02% Tween 20
6. Washing step: • Wash 3× with PBS/0.02% Tween 20
Anti-human BMP-4 biotin antibody; Catalog No.: BAM7572, 1:200 in 1% BSA-PBS-T
8. Washing step: • Wash 3× with PBS/0.02% Tween 20
10. Washing step: • Wash 3× with PBS/0.02% Tween 20
ImmunoPure TMB substrate kit; (Pierce, #34021) • Development period: approximately 1-30 minutes • 1:1 mixture of […]; addition: 50 μL per well
12. Stop: • 2.5 M H2SO4; addition: 50 μL per well
The test was conducted according to test method 4, variant B above, with immobilization of the fusion proteins (1 mg/mL). The binding of BMP-4 was detected using anti-BMP-4 biotin antibodies.
The test was conducted according to test method 4, variant B above, with immobilization of the fusion proteins (1 mg/mL). The binding of BMP-4 and -2 was detected using anti-BMP-4 and anti-BMP-2 biotin antibodies, respectively.

[1] = system: BMP signalling (rhBMP-2-induced luciferase activity); assay: BRE-Luc assay on BMP signalling in BMP-responsive C3H10-B12 cells; type: cell-based
Protocol: Evaluation of the Agonistic or Antagonistic Effect of h RMG A on BMP Signalling using BRE-Luc Assay
a) Materials: • Three compounds were provided at 200 μg/ml.
fragment #788 (IgK/hRGM A 47-422/Xa cleavage site/Fc) • recombinant h BMP-2 (from CHO cells; #355-BM) and monoclonal anti-human BMP2/4 antibodies (#MAB3552) were obtained from R&D Systems Europe, Lille, France • Bright-Glo Luciferase assay kit were purchased from Promega
All experiments were performed in triplicate, and were repeated at two separate times.

B1: fragment #786: Fc fusion protein of human RGM A amino acids 47-168 (protein)
chain: PCKILKCNSEFWSATSGSHAPASDDTPEFCAALRSYALCTRRTARTCRGDLAYHSAVHGIEDLMSQHNCSKDGPTSQPRLRTLPPAGDSQERSDSPEICHYEKSFHKHSATPNYTHCGLFGD
modifications: left off: small tags and cut ends; a dimerising Fc or GST
- inhibition of neurite growth (NTera-2 cells): inhibit the neurite growth
- inhibitory activity in neurite growth test compared with 316-386-Fc (NTera-2 cells; listed as 47-168-Fc): much stronger effect; also recorded: significantly higher activity
- binding of BMP-4 (BMP-4; Working Example 1, FIG. 3, anti-BMP-4 biotin antibodies): more significant binding
- binding of BMP-4 (BMP-4; Working Example 2, FIG. 4, anti-BMP-4 biotin antibodies): more significant binding
- effect on BMP-2-induced luciferase activity ([1]; combined with rhBMP-2 at 50 ng/ml, 24 h, listed as #786): dose-dependent inhibition; also recorded: inhibited the rhBMP-2-induced activity in a dose dependent fashion
- inhibition of the rhBMP-2-induced activity ([1]; compounds at 10 μg/ml, rhBMP-2 at 50 ng/ml): 88%
- equivalent dose for 50% of inhibition (ED50) ([1]; rhBMP-2 at 50 ng/ml): 0.1 mg/L
